B1: Humanized Anti-PSMA Antibody Variant 2 ADC, MMAF payload, Non-Cleavable (PEG3) linker (antibody, human IgG1, kappa, V domains shown)
VH: QVQLVQSGAEVKKPGASVKVSCKASGYTFTEYTIHWVRQAPGQRLEWMGNINPNNGGTTYNQKFEDRVTITRDTSASTAYMELSSLRSEDTAVYYCAAGWNFDYWGQGTTLTVSS
VL: DIQLTQSPSFLSASVGDRVTITCKASQDVGTAVDWYQQKPGKAPKLLIYWASTRHTGVPSRFSGSGSGTEFTLTISSLQSEDFATYYCQQYNSYPLTFGGGTKVEIKR
modifications: para-acetyl phenylalanine (pAF) at position A114 (Kabat numbering; first residue of the heavy chain constant region), conjugated to non-cleavable (PEG3) MMAF drug-linker
B2: Humanized Anti-PSMA Antibody Variant 1 ADC, MMAF payload, Short Cleavable (Valine-Citruline-Acetyl) linker (antibody, human IgG1, kappa, V domains shown)
VH: QVQLVQSGAEVKKPGASVKVSCKASGYTFTEYTIHWVRQAPGQRLEWMGNINPNNGGTTYNQKFEDRVTITRDTSASTAYMELSSLRSEDTAVYYCAAGWNFDYWGQGTTLTVSS
VL: DIQLTQSPSFLSASVGDRVTITCKASQDVGTAVDWYQQKPGKAPKLLIYWASTRHTGVPSRFSGSGSGTEFTLTISSLQPEDFATYYCQQYNSYPLTFGGGTKVEIKR
modifications: para-acetyl phenylalanine (pAF) at position A114 (Kabat numbering; first residue of the heavy chain constant region), conjugated to short cleavable (Valine-Citruline-Acetyl) MMAF drug-linker
B3: Humanized Anti-PSMA Antibody Variant 1 ADC, MMAE payload, Short Cleavable (Valine-Citruline-Acetyl) linker (antibody, human IgG1, kappa, V domains shown)
VH: QVQLVQSGAEVKKPGASVKVSCKASGYTFTEYTIHWVRQAPGQRLEWMGNINPNNGGTTYNQKFEDRVTITRDTSASTAYMELSSLRSEDTAVYYCAAGWNFDYWGQGTTLTVSS
VL: DIQLTQSPSFLSASVGDRVTITCKASQDVGTAVDWYQQKPGKAPKLLIYWASTRHTGVPSRFSGSGSGTEFTLTISSLQPEDFATYYCQQYNSYPLTFGGGTKVEIKR
modifications: para-acetyl phenylalanine (pAF) at position A114 (Kabat numbering; first residue of the heavy chain constant region), conjugated to short cleavable (Valine-Citruline-Acetyl) MMAE drug-linker
B4: Humanized Anti-PSMA Antibody Variant 2 ADC, MMAF payload, Short Cleavable (Valine-Citruline-Acetyl) linker (antibody, human IgG1, kappa, V domains shown)
VH: QVQLVQSGAEVKKPGASVKVSCKASGYTFTEYTIHWVRQAPGQRLEWMGNINPNNGGTTYNQKFEDRVTITRDTSASTAYMELSSLRSEDTAVYYCAAGWNFDYWGQGTTLTVSS
VL: DIQLTQSPSFLSASVGDRVTITCKASQDVGTAVDWYQQKPGKAPKLLIYWASTRHTGVPSRFSGSGSGTEFTLTISSLQSEDFATYYCQQYNSYPLTFGGGTKVEIKR
modifications: para-acetyl phenylalanine (pAF) at position A114 (Kabat numbering; first residue of the heavy chain constant region), conjugated to short cleavable (Valine-Citruline-Acetyl) MMAF drug-linker
B5: Humanized Anti-PSMA Antibody Variant 2 ADC, MMAE payload, Short Cleavable (Valine-Citruline-Acetyl) linker (antibody, human IgG1, kappa, V domains shown)
VH: QVQLVQSGAEVKKPGASVKVSCKASGYTFTEYTIHWVRQAPGQRLEWMGNINPNNGGTTYNQKFEDRVTITRDTSASTAYMELSSLRSEDTAVYYCAAGWNFDYWGQGTTLTVSS
VL: DIQLTQSPSFLSASVGDRVTITCKASQDVGTAVDWYQQKPGKAPKLLIYWASTRHTGVPSRFSGSGSGTEFTLTISSLQSEDFATYYCQQYNSYPLTFGGGTKVEIKR
modifications: para-acetyl phenylalanine (pAF) at position A114 (Kabat numbering; first residue of the heavy chain constant region), conjugated to short cleavable (Valine-Citruline-Acetyl) MMAE drug-linker
B6: Humanized Anti-PSMA Antibody Variant 2 ADC, MMAE payload, Non-Cleavable (PEG3) linker (antibody, human IgG1, kappa, V domains shown)
VH: QVQLVQSGAEVKKPGASVKVSCKASGYTFTEYTIHWVRQAPGQRLEWMGNINPNNGGTTYNQKFEDRVTITRDTSASTAYMELSSLRSEDTAVYYCAAGWNFDYWGQGTTLTVSS
VL: DIQLTQSPSFLSASVGDRVTITCKASQDVGTAVDWYQQKPGKAPKLLIYWASTRHTGVPSRFSGSGSGTEFTLTISSLQSEDFATYYCQQYNSYPLTFGGGTKVEIKR
modifications: para-acetyl phenylalanine (pAF) at position A114 (Kabat numbering; first residue of the heavy chain constant region), conjugated to non-cleavable (PEG3) MMAE drug-linker
B7: Humanized Anti-PSMA (full length) Variant 2 (antibody, human IgG1, kappa, V domains shown)
VH: QVQLVQSGAEVKKPGASVKVSCKASGYTFTEYTIHWVRQAPGQRLEWMGNINPNNGGTTYNQKFEDRVTITRDTSASTAYMELSSLRSEDTAVYYCAAGWNFDYWGQGTTLTVSS
VL: DIQLTQSPSFLSASVGDRVTITCKASQDVGTAVDWYQQKPGKAPKLLIYWASTRHTGVPSRFSGSGSGTEFTLTISSLQSEDFATYYCQQYNSYPLTFGGGTKVEIKR
notes: Humanized J591 (CDR graft), full length; expressed transiently in HEK293 cells, supernatant tested by FACS on LnCap cells; also called humanized anti-PSMA variant 2; Humanized Anti-PSMA Antibody Variant 2
B8: Humanized Anti-PSMA (full length) Variant 4 (antibody, human IgG1, kappa, V domains shown)
VH: QVQLVQSGAEVKKPGASVKVSCKASGYTFTEYTIHWVRQAPGQRLEWMGNINPNNGGTTYNQKFEDRVTITRDTSASTAYMELSSLRSEDTAVYYCAAGWNFDYWGQGTTLTVSS
VL: DIQLTQSPSFLSASVGDRVTITCKASQDVGTAVDWYQQKPGKAPKLLIYWASTRHTGVPSRFSGSGSGTEFTLTISNLQPEDFATYYCQQYNSYPLTFGGGTKVEIKR
notes: Humanized J591 (CDR graft), full length; expressed transiently in HEK293 cells, supernatant tested by FACS on LnCap cells; also called humanized anti-PSMA variant 4
B9: Humanized Anti-PSMA (full length) Variant 3 (antibody, human IgG1, kappa, V domains shown)
VH: QVQLVQSGAEVKKPGASVKVSCKASGYTFTEYTIHWVRQAPGQRLEWMGNINPNNGGTTYNQKFEDRVTITRDTSASTAYMELSSLRSEDTAVYYCAAGWNFDYWGQGTTLTVSS
VL: DIQLTQSPSFLSASVGDRVTITCKASQDVGTAVDWYQQKPGKAPKLLIYWASTRHTGVPDRFSGSGSGTEFTLTISSLQPEDFATYYCQQYNSYPLTFGGGTKVEIKR
notes: Humanized J591 (CDR graft), full length; expressed transiently in HEK293 cells, supernatant tested by FACS on LnCap cells; also called humanized anti-PSMA variant 3

Target: T1, prostate specific membrane antigen (PSMA) (UniProt Q04609 1-750, limits assumed)
T1 sequence (Q04609 whole entry): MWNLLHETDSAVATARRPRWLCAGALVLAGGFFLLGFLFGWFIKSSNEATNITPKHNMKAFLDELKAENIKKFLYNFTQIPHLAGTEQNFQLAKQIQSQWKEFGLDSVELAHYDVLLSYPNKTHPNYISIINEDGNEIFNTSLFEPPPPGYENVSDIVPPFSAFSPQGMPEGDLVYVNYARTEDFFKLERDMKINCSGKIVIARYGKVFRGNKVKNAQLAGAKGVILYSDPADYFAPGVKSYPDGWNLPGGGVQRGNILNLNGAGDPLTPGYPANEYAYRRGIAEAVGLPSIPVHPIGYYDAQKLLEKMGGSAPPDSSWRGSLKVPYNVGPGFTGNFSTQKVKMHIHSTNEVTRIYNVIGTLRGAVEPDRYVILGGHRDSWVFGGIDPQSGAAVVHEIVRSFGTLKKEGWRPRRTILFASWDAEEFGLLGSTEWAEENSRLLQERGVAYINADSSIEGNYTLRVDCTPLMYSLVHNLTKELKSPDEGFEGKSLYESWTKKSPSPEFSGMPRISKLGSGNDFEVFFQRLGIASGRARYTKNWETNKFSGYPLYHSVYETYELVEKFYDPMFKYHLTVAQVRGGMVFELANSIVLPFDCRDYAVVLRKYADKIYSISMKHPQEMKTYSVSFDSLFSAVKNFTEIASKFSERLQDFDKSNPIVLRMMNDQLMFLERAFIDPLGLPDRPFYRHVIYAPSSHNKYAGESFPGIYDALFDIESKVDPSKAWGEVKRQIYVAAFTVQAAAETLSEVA
Experiment: cell-based or functional assay

Binder	Cell Killing (%), C4-2 cell line	IC50 (nM), in vitro cell killing in C4-2 cell line (Cell Titer Glo, 96 h)
B1	81%	0.503 nM
B2	92%	0.064 nM
B3	81.5%	0.542 nM
B4	91%	0.053 nM
B5	81.5%	0.52 nM
B6	67%	12.5 nM

Target: T1, prostate specific membrane antigen …
Experiment: FACS, HEK293 supernatants on LnCap cells expressing PSMA
Description: Example 2: Antibody Humanization-Parental mouse J591 (Liu et al., Cancer Research, 57, […], 1997) antibody was humanized by selecting human frameworks based on sequence identity with the mouse framework sequence. The light chain and heavy chain CDRs from the mouse antibody were grafted onto the human frameworks, respectively, and analyzed for binding to PSMA antigen. Humanized variants were generated by pairing four human heavy chain frameworks with six light chain frameworks. The variants were expressed transiently in HEK293 cells and the supernatants were tested for binding to the PSMA antigen expressed in LnCap cells by FACS. Table 4 describes a selected heavy chain variable region sequence and 4 light chain variable region sequences used for further studies. […] ID Nos: 8 and the light chain sequence of SEQ. […] ID Nos: 10 and the light chain sequence of SEQ. […] ID Nos: 12 and the light chain sequence of SEQ. […] ID Nos: 14 and the light chain sequence of SEQ. ID Nos: 15.

Binder	binding result
B7	binds
B8	binds
B9	binds

Source: patent US20240350835A1 (AMBRX, published 2024)
